Laboratory results as given in patent publication US11633499B2, “Anti-TMEM-180 antibody, anticancer drug and cancer testing method” (NATIONAL CANCER CENTER JAPAN, priority 2016, dated 2023).
Residue numbers refer to the chain shown, from its start.

T1: TMEM-180 (Homo sapiens, UniProt Q14CX5)
T1 construct: endogenous in cells; host or cells: DLD-1 colon cancer cell line (parent / wild type); culture supernatant exosomes in A20
T1 sequence (Q14CX5 1-517): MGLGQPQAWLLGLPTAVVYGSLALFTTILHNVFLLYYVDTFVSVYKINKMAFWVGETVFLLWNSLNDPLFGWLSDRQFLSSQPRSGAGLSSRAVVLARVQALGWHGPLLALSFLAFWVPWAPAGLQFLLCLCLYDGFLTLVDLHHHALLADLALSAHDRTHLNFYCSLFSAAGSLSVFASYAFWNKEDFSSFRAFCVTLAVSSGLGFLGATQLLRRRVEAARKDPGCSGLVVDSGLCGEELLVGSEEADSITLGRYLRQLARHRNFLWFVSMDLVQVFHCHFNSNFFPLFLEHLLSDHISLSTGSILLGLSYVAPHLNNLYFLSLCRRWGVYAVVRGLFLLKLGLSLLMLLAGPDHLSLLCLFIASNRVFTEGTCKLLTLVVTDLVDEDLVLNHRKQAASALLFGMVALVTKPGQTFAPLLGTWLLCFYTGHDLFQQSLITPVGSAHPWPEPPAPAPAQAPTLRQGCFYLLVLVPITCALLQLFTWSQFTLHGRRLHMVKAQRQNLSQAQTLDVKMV

B1: clone 101: rat IgM anti-TMEM-180 monoclonal antibody; variable regions SEQ ID NOs: 15 and 16 (antibody, V domains shown)
VH: MAILVLLLCLVTIPHSVLSQVQLKETGPGLVQPTQTLSITCTVSGFSLTSYYMQWVRQTPGKGLEWMGFIRSGGSTEYNSEFKSRLSISRDTSKNQVFLKMNSLKTEDTGVYYCARAFYGGYYFDYWGQGVMVTVSS
VL: MGIRMESHTRVFIFLLLWLSGADGDIVMTQSPTSISISVGERVTMNCKASQNVGSNVDWYQQKTGQSPKLLIYKASNRYTGVPDRFTGSGSGTDFTFTISNMQAEDLAVYYCMQSNTKYTFGAGTKLELK
B2: clone 1052: rat IgM anti-TMEM-180 monoclonal antibody; variable regions SEQ ID NOs: 94 and 95 (antibody, V domains shown)
VH: MAVLVLLLCLVTFPSCVLSQVQLKESGPGLMQPSETLSLTCTVSGFSLTSNGVGWVRQPLGKGLVWMGTIWTGGGTNYNSGVQSRLSISRDTSKSQVFLKMNSLQPEDTGTYYCAREYMGFDYWGQGVMVTVSS
VL: MELISQVFVFLLLWLSGVYGNTVMTQSPTSMFTSVGDRVTMSCKASQNVGINVGWYQQKTGQSPKRLIYWASNRDTGVPDRFTGSGSGTDFTLTISNMQAEDPAIYYCLQHNSYPRTFGGGTKLELK
B3: clone 1105: rat IgM anti-TMEM-180 monoclonal antibody; variable regions SEQ ID NOs: 102 and 103 (antibody, V domains shown)
VH: B2 VH with T72S, G81A, S89T, Y118E, M119K, D122A, V128T, M129L
VL: B2 VL with T22I, F32S, T117A, K127R
B4: rat-human chimeric antibody clone 98: rat-human chimeric IgG1 antibody carrying clone 98 variable regions (antibody, V domains shown)
VH: QVQLKESGPGLVQPSQTLSLTCTVSGFSLTRYNVHWVRQPTGKGLEWMGVIWTGGSTDYNSALKSRLSISRDTSKSQVFLKMNSLQTEDIATYYCARDLGYWGQGVMVTVSS
VL: DIVMTQTPLSLSVAIGQSASISCKSSQSLKYRDGKTYLNWVFQSPGQSPKRLIYQVSKLDSGVPDRFSGTGSETDFTLKISRVEAEDLGVYYCCQGSYSPHTFGAGTKLELK
B5: clone 212: rat IgM anti-TMEM-180 monoclonal antibody; variable regions SEQ ID NOs: 46 and 47 (antibody, V domains shown)
VH: MDIRLSLAFLVLFIKGVQCEVQLVESGGGLVQPGNSLKLSCAASGFTFSDYAMAWVRQSPKKGLEWVATIIYDGSSTYYRDSVKGRFTISRDNAKSTLYLQMDSLRSEDTATYYCATHWYWYFDFWGPGTMVTVSS
VL: MGVPTQLLGLLLLWITDAICDIQMTQSPASLSASLGETVSIECLASEGISNDLAWYQQKSGKSPQLLIYAASRLQDGVPSRFSGSGSGTRYSLKISGMQPEDEADYFCQQSYKYPLTFGSGTKLEIK

Legend:
colon cancer cell lines = assay: Flow cytometry (FACS) with anti-TMEM-180 IgM clones, colon cancer; format: binding; settings: six types of colon cancers; FIG. 3
Method: (§1) Cancer cells targeted for measurement were cultured in medium and then added to a V-bottom 96-well plate (Corning Incorporated) to a concentration of 1×10^5 cells/well. The plate was centrifuged for 3 minutes at 440×g and 4° C. followed by removing the supernatant, adding antibody-producing hybridoma culture supernatant or antibody solution to the cell pellet at 50 μL/well and suspending therein. After allowing to react for 45 minutes on ice, the plate was washed three times with a mixture of 0.1% BSA, 2 mM EDTA and PBS at 200 μL/well. The supernatant was removed and secondary antibody was added to the cell pellet at 50 μL/well followed by suspending the cells therein. ALEXAFLUOR 647@ (fluorescent compound) goat anti-rat IgG (H-L) (Life Technologies Corporation) was used for the secondary antibody after diluting 400-fold with a mixture of 0.1% BSA, 2 mM EDTA and PBS. After allowing to react for 45 minutes on ice, the plate was washed three times with a mixture of 0.1% BSA, 2 mM EDTA and PBS at 200 μL/well. After removing the supernatant, 50 ng/mL of propidium iodide, 0.1% BSA, 2 mM EDTA and PBS were added to the cell pellet at 250 µL/well followed by suspending therein. The cells stained in this manner were measured using a flow cytometer such as the Guava easyCyte 8HT (Merck Millipore Corporation) followed by analysis of the resulting data using FlowJO (Tomy Digital Biology Co., Ltd.). FACS analysis was carried out using colon cancer, brain tumor and hematologic cancer.

colon cancer DLD-1 cells = assay: Cytocidal effect of anti-TMEM-180 IgM antibody (WST-8), DLD-1; format: cell-based, human; settings: hybridoma culture supernatant adjusted to 80, 20 or 5 μg/mL, 96 hours, FIGS. 7 and 8
Method: (§2) DLD-1 cells and K562 cells were added to a 96-well plate at 1×10^3 cells/100 μL/well followed by culturing for 24 hours. 50 μL of medium were removed from each well of the 96-well plate followed by the addition of rat IgM antibody clone 98-producing hybridoma culture supernatant or rat IgM antibody clone 101-producing hybridoma culture supernatant, in which antibody concentration had been adjusted to 80 μg/mL, 20 μg/mL or 5 μg/mL, at 50 μL/well. Here, n number in each culture condition was 3, and wells containing medium only were prepared as controls. […] After culturing for 96 hours, WST-8 (Dojindo Laboratories, Cell Counting Kit-8) was added at 10 μL/well followed by measuring absorbance at 450 nm with a microplate reader after culturing for 3 hours. The relative values of absorbance at each antibody concentration were plotted by plotting antibody concentration on the horizontal axis and assigning a value of 1 to the optical absorbance of the well containing medium only. […] Cytocidal effects were also observed for other colon cancer cells Difi, Carl, SW480 and Colo201.

brain tumor cell lines = assay: Flow cytometry (FACS) with anti-TMEM-180 IgM clones, brain tumor; format: binding; settings: four types of brain tumors; FIG. 3
Method: as §1

DLD-1 colon cancer cells = assay: Fluorescent immunostaining of DLD-1 colon cancer cells; format: binding, human; settings: fixed and permeabilized DLD-1; antibody concentrations of clones not aligned; FIG. 4
Method: DLD-1 cells were added to a 96-well plate (Corning Incorporated, CeIIBIND) to a concentration of 5×10^3 cells/well and subjected to cell staining after culturing for 2 days. The cells were subjected to fixation and permeation treatment in the manner indicated below. After washing the cell culturing plate twice with PBS at 200 μL/well, the washings were removed followed by the addition of 4% para-formaldehyde-phosphate buffer (Wako Pure Chemical Industries, Ltd.) containing 0.1% TRITON™ (surfactant) X-100 (Wako Pure Chemical Industries, Ltd.) at 100 µL/well while cooling with ice and fixing the cells for 10 minutes. After removing the fixation solution, the plate was washed once with PBS at 200 μL/well and once with a mixture of 1% FBS in PBS at 200 μL/well to obtain a cell-immobilized plate. The cells were stained in the manner indicated below. Namely, after removing medium from the non-immobilized cell culturing plate and removing washings from the cell-immobilized plate, […] hybridoma culture supernatant or diluted antibody solution was added at 50 μL/well. After allowing to react for 1 hour on ice, the plate was washed once with PBS at 200 μL/well and twice with a mixture of 1% FBS in PBS at 200 μL/well. After removing the washings, a mixture of 5 μg/mL ALEXAFLUOR 647@ (fluorescent compound) goat anti-rat IgG (H-L), 2 μg/mL Hoechst 33342 and 1% FBS/PBS was added at 50 μL/well. After allowing to react for 1 hour on ice, the plate was washed twice with PBS at 200 μL/well. PBS was then added at 50 μL/well followed by measuring with ArrayScan (Thermo Fisher Scientific Inc.).

[1] = tested on: hematologic tumor K562 cells; assay: Cytocidal effect of anti-TMEM-180 IgM antibody (WST-8), K562; format: cell-based; settings: hybridoma culture supernatant adjusted to 80, 20 or 5 μg/mL, 96 hours, FIGS. 7 and 8
Method: as §2

[2] = tested on: cell lines derived from cancers (ATCC and JCRB); assay: Reactivity of antibodies to cancer-derived cell lines by FACS (Table 23); format: binding
[3] = tested on: cell lines derived from cancers (ATCC and JCRB); assay: as above; format: binding; settings: Cancer Type: Colon
Method: as §1
Cancer-detection rates were tested using monoclonal antibodies (the 669 antibody, 1052 antibody, 1105 antibody, and 1361 antibody).
In this Example, the reactivity of the antibodies to the cell lines derived from cancers which were obtained from ATCC and JCRB was analyzed by FACS.

TMEM-180 = biological target: T1, TMEM-180; assay: FACS of DLD-1 parent line and TMEM-180 knockout line; format: binding
Method: The plate was centrifuged for 3 minutes at 440×g and 4° C. followed by removing the supernatant, adding antibody-producing hybridoma culture supernatant or antibody solution to the cell pellet at 50 μL/well and suspending therein. After allowing to react for 45 minutes on ice, the plate was washed three times with a mixture of 0.1% BSA, 2 mM EDTA and PBS at 200 μL/well. The supernatant was removed and secondary antibody was added to the cell pellet at 50 μL/well followed by suspending the cells therein. […] After allowing to react for 45 minutes on ice, the plate was washed three times with a mixture of 0.1% BSA, 2 mM EDTA and PBS at 200 μL/well. […] The cells stained in this manner were measured using a flow cytometer such as the Guava easyCyte 8HT (Merck Millipore Corporation) followed by analysis of the resulting data using FlowJO (Tomy Digital Biology Co., Ltd.). FACS analysis was carried out using colon cancer, brain tumor and hematologic cancer.
Flow cytometry was carried out in accordance with the procedure described in the above-mentioned section 3. […] The supernatant of a culture of hybridoma producing rat IgM antibody clone 365 was used as a negative control after similarly diluting to 1 μg/mL. […] A mixture of RPMI and 10% FBS was used to dilute each of the antibodies. Furthermore, antibody concentration in the hybridoma culture supernatant was measured by rat IgM-specific ELISA (Bethyl Laboratories).

Molecule | FACS reactivity to colon cancers (colon cancer cell lines) | FACS reactivity to brain tumors (brain tumor cell lines) | fluorescent immunostaining (pattern, intensity) (DLD-1 colon cancer cells) | Detection Sensitivity of Cancers, Percentage (%) ([2]; Cancer Type: Bladder) | Detection Sensitivity of Cancers, P/N ([2]; Cancer Type: Brest) | Detection Sensitivity of Cancers, Percentage (%) ([2]; Cancer Type: Brest) | Detection Sensitivity of Cancers, P/N ([2]; Cancer Type: Gastric) | Detection Sensitivity of Cancers, Percentage (%) ([2]; Cancer Type: Gastric) | Detection Sensitivity of Cancers, P/N ([2]; Cancer Type: Pancreas) | Detection Sensitivity of Cancers, Percentage (%) ([2]; Cancer Type: Pancreas) | Detection Sensitivity of Cancers, P/N [3] | Detection Sensitivity of Cancers, Percentage (%) [3] | further results
B1 | positive for four types of colon cancers | negative for all of the brain tumors | weaker fluorescence intensity than clone 98 and the cytoplasm was also stained | – | – | – | – | – | – | – | – | – | cytocidal effects against DLD-1 cells (colon cancer DLD-1 cells): demonstrated cytocidal effects; cytocidal effects against K562 cells [1]: did not demonstrate cytocidal effects
B2 | – | – | – | 50% | (3/6) | 50% | (2/8) | 25% | (4/9) | 44% | (3/10) | 30% | Detection Sensitivity of Cancers, P/N ([2]; Cancer Type: Bladder): (2/4)
B3 | – | – | – | 50% | (3/6) | 50% | (2/8) | 25% | (4/9) | 44% | (3/10) | 30% | –
B4 | – | – | – | – | – | – | – | – | – | – | – | – | FACS shift, TMEM-180 knockout line versus parent line (TMEM-180; DLD-1 parent line vs TMEM-180 knockout line, FIG. 5): considerable left shift; specific recognition of TMEM-180 (TMEM-180; conclusion from DLD-1 parent vs knockout FACS): specifically recognize TMEM-180
B5 | positive for all six types of colon cancers | positive for only one type of brain tumor | weaker fluorescence intensity than clone 98 and the cytoplasm was also stained | – | – | – | – | – | – | – | – | – | –
